{"source": "paper PMC5834346", "about": "(Familial cancer, 2018)", "binders": {"B1": {"name": "RAD51 WT (natural protein, human, UniProt Q06609 1-339, looked up)", "chain": "MAMQMQLEANADTSVEEESFGPQPISRLEQCGINANDVKKLEEAGFHTVEAVAYAPKKELINIKGISEAKADKILAEAAKLVPMGFTTATEFHQRRSEIIQITTGSKELDKLLQGGIETGSITEMFGEFRTGKTQICHTLAVTCQLPIDRGGGEGKAMYIDTEGTFRPERLLAVAERYGLSGSDVLDNVAYARAFNTDHQTQLLYQASAMMVESRYALLIVDSATALYRTDYSGRGELSARQMHLARFLRMLLRLADEFGVAVVITNQVVAQVDGAAMFAADPKKPIGGNIIAHASTTRLYLRKGRGETRICKIYDSPCLPEAEAMFAINADGVGDAKD"}, "B2": {"name": "RAD51 A55V (natural protein, human, UniProt Q06609 1-339, looked up)", "chain": "MAMQMQLEANADTSVEEESFGPQPISRLEQCGINANDVKKLEEAGFHTVEAVAYVPKKELINIKGISEAKADKILAEAAKLVPMGFTTATEFHQRRSEIIQITTGSKELDKLLQGGIETGSITEMFGEFRTGKTQICHTLAVTCQLPIDRGGGEGKAMYIDTEGTFRPERLLAVAERYGLSGSDVLDNVAYARAFNTDHQTQLLYQASAMMVESRYALLIVDSATALYRTDYSGRGELSARQMHLARFLRMLLRLADEFGVAVVITNQVVAQVDGAAMFAADPKKPIGGNIIAHASTTRLYLRKGRGETRICKIYDSPCLPEAEAMFAINADGVGDAKD"}, "B3": {"name": "RAD51 A79D (natural protein, human, UniProt Q06609 1-339, looked up)", "chain": "MAMQMQLEANADTSVEEESFGPQPISRLEQCGINANDVKKLEEAGFHTVEAVAYAPKKELINIKGISEAKADKILAEADKLVPMGFTTATEFHQRRSEIIQITTGSKELDKLLQGGIETGSITEMFGEFRTGKTQICHTLAVTCQLPIDRGGGEGKAMYIDTEGTFRPERLLAVAERYGLSGSDVLDNVAYARAFNTDHQTQLLYQASAMMVESRYALLIVDSATALYRTDYSGRGELSARQMHLARFLRMLLRLADEFGVAVVITNQVVAQVDGAAMFAADPKKPIGGNIIAHASTTRLYLRKGRGETRICKIYDSPCLPEAEAMFAINADGVGDAKD"}}, "experiment_in_all_cases": "two-hybrid", "key": {"RAD51 A55V": {"molecular_target": "B2"}, "RAD51 A79D": {"molecular_target": "B3"}, "RAD54L WT": {"molecular_target": "T1, RAD54L WT (human, UniProt Q92698 1-747)", "T1 sequence (looked up)": "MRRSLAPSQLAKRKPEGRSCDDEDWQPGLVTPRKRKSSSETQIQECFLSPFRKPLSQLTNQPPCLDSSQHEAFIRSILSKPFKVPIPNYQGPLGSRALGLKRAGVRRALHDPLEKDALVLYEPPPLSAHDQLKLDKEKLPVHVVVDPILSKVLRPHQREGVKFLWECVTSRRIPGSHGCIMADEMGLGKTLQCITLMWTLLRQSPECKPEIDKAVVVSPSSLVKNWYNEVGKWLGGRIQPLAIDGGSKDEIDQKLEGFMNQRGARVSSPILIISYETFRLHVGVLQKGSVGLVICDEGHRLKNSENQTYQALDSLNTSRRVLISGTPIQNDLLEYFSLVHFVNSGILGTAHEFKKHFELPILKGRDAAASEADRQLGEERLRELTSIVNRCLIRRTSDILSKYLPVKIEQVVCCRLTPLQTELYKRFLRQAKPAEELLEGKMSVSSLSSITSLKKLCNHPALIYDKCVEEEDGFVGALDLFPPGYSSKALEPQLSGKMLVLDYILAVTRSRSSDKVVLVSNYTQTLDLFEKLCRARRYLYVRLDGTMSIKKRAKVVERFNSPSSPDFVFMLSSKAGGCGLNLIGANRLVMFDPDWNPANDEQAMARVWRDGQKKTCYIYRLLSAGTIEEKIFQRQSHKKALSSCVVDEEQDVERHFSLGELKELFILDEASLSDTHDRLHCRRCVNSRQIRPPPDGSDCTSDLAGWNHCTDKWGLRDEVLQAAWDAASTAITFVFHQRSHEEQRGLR"}, "XRCC3 WT": {"molecular_target": "T2, XRCC3 WT (human, UniProt O43542 1-346)", "T2 sequence (looked up)": "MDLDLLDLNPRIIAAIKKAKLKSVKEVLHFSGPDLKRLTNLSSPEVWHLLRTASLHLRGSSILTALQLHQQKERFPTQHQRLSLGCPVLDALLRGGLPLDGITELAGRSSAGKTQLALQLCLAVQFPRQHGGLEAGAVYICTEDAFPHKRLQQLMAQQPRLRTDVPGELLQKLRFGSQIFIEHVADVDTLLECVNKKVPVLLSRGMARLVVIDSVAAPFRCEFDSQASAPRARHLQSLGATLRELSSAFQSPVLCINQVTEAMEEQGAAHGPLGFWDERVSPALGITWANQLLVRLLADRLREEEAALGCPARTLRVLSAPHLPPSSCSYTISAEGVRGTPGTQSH"}, "RAD51 WT": {"molecular_target": "B1"}}}
{"binder": "B1", "values": [{"measurement": "Y2H % of WT", "setting": "RAD51 A55V", "result": "90.8 % of WT"}, {"measurement": "Y2H % of WT", "setting": "RAD51 A79D", "result": "109 % of WT"}]}
{"binder": "B2", "values": [{"measurement": "Y2H % of WT", "setting": "RAD54L WT", "result": "112 % of WT"}, {"measurement": "Y2H % of WT", "setting": "XRCC3 WT", "result": "97.8 % of WT"}, {"measurement": "Y2H % of WT", "setting": "RAD51 WT", "result": "135 % of WT"}]}
{"binder": "B3", "values": [{"measurement": "Y2H % of WT", "setting": "RAD54L WT", "result": "90.6 % of WT"}, {"measurement": "Y2H % of WT", "setting": "XRCC3 WT", "result": "21.5 % of WT"}, {"measurement": "Y2H % of WT", "setting": "RAD51 WT", "result": "95.1 % of WT"}]}
